What is called Kd is a measure of binding affinity in units of concentration. The low end stands for higher affinity, the high end for lower affinity.

Common to all, as to assay: DNA electrochemistry
The target of data set [1] is T1, StXPB2 (Sulfolobus tokodaii, UniProt Q970I2 1-439).
T1 sequence: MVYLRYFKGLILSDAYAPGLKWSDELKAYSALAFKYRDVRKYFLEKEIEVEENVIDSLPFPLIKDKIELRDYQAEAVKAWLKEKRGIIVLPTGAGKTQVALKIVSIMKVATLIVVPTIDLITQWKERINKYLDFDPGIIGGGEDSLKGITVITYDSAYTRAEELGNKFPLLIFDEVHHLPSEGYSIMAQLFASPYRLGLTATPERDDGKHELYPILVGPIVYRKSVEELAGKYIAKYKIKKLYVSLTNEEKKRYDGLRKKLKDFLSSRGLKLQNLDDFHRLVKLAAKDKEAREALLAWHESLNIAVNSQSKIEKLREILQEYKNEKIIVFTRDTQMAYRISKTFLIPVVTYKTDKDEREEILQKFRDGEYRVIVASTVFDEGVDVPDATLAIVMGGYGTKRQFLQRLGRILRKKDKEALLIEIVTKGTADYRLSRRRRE

Data set [2] has as its target T2, StXPB1 (Sulfolobus tokodaii, UniProt Q971U1 1-543).
T2 sequence: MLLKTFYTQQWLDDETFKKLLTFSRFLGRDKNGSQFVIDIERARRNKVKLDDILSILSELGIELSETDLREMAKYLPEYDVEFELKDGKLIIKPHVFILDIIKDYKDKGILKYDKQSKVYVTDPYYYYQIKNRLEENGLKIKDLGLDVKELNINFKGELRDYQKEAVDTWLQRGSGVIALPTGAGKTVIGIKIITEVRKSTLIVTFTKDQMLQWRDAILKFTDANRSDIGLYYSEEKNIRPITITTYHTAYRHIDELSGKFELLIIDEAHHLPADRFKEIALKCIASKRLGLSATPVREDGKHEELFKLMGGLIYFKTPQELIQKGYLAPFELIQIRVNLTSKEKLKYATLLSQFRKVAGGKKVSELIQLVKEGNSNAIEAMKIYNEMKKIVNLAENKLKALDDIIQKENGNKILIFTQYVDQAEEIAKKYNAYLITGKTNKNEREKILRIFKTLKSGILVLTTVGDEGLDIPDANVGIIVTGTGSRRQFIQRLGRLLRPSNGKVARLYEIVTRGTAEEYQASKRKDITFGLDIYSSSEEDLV

For data set [3], the target named is T3, AfXPB (Archaeoglobus fulgidus, UniProt O29889 1-452).
T3 sequence: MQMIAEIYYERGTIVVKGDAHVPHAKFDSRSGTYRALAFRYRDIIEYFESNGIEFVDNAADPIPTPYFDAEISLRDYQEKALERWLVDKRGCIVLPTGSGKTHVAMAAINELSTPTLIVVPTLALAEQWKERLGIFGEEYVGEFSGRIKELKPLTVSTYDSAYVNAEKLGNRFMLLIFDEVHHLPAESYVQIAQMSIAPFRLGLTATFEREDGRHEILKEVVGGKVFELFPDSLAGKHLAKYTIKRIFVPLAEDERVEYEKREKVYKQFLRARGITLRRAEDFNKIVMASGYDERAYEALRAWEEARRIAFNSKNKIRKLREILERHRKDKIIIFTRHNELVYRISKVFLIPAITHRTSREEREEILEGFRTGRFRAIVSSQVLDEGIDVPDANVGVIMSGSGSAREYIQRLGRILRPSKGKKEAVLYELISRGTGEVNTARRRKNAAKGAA

B1: 17mer well-matched duplex (WM) (dsDNA)
DNA 1: GAGATATAAAGCACGCA
DNA 2: TGCGTGCTTTATATCTC
modifications: strand 1 5' C6 thiol on gold electrode; strand 2 5'-terminal T is Nile Blue-modified (5-acrylate dU)
For B1, the Kd in data set [1] was determined as 50 ± 10 nM; in data set [2], 8 ± 2 nM; in data set [3], 22 ± 8 nM.

The record behind these values is paper PMC5957534.
